Here are results for 6 molecules from patent US10005846 (LIFEARC, dated 2018).

Numbering of substitutions follows the chain as printed.

For assay [1], the target named is T1, human transglutaminase type 2 (TG2) (human, UniProt P21980 1-687).
T1 sequence: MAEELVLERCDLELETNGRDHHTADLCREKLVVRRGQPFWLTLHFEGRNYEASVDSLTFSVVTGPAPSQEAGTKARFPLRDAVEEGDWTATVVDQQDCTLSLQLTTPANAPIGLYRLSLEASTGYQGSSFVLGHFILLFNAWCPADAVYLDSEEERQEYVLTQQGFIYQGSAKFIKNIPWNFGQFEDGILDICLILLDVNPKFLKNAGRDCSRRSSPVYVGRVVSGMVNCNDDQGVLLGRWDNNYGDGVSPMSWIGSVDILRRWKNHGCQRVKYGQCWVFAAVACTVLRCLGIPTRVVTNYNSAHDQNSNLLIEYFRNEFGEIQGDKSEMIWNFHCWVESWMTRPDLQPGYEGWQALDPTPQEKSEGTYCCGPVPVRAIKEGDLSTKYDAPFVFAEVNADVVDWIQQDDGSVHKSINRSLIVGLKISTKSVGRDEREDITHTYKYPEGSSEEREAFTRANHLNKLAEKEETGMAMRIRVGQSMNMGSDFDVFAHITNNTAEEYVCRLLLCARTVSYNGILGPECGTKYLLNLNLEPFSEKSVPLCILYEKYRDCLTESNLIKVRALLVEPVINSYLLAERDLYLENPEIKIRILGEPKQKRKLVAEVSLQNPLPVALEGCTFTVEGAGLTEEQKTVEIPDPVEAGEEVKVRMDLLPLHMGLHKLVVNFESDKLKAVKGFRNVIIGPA
Put plainly: cell-based or functional assay.

Assay [2] deals with T1, human transglutaminase type 2 (TG2). The assay is described as follows: cell-based or functional assay. The source holds these as a separate data set.
The target in assay [3] is T2, cynomolgus monkey TG2 (cynomolgus monkey, UniProt A0A2K5VXI8 1-687).
T2 construct: Bought recombinant protein; also called cynomogulus monkey TG2; cyano TG2
T2 sequence: T1 sequence with E4D, Q157R, N177S, H413S, I421T, Y528H, V542I
The assay is described as follows: SPR (Biacore T200), antibody captured on anti-human IgG1 Fc chip, TG2 injected; calcium condition not marked in the row. The protocol:
(§1) Recombinant cynomolgus monkey TG2 was obtained from Trenzyme. Surface plasmon resonance (SPR) was measured on a Biacore T200 instrument (GE Healthcare). CM5 chips (GE Healthcare cat. no.: BR-1006-68) were coated with monoclonal mouse anti-human IgG1 (Fc) (MAH) antibody (GE Healthcare cat. no.: BR-1008-39) by amine-coupling as described in the manufacturers instructions. HBS-EP+ buffer (0.01 M HEPES, 0.15 M NaCl, 3 mM EDTA, 0.05% v/v Surfactant P20) and HBS-P+ buffer (0.01 M HEPES, 0.15 M NaCl, 0.05% Surfactant P20) were purchased from GE Healthcare as 10× stocks (cat. nos.: BR-1006-69 and BR-1006-71). Calcium Chloride solution was obtained from Sigma Aldrich (cat. no.:21115).
(§2) The method employed to determine the affinity of the anti-TG2 antibodies involved the capture of the chimeric or humanised antibodies on a MAH coated CM5 chip, followed by the injection of a series of TG2 samples in running buffer. The running buffer was 1×HBS-P+ containing 1 mM CaCl_2, or 1×HBS-EP+ for calcium-free experiments. Antibody capture was carried out for a contact time of 120 seconds at a flow rate of 10 μl/min resulting in the capture of approximately 40-80 RU. TG2 was injected over the immobilised antibody at concentrations ranging from 25 nM to 400 nM with a contact time up to 600 seconds at a flow rate of 30 μl/min. Dissociation of TG2 was typically measured for up to 5400 seconds (1.5 hours). Regeneration of the chip was then performed using 3 M MgCl_2, for a contact time of 60 seconds at a flow rate of […], followed by a 300 s stabilisation period before the next sample. For each of human and cynomolgus monkey TG2, at least 5 injections at a variety of concentrations were performed in at least two separate experiments.
(§3) Kinetic data were exported from the Biacore T200 Evaluation Software and analysed using GraphPad Prism, where the association phases and dissociation phases were analysed separately using a one phase association model and one-phase exponential decay model respectively. Association rates ($kon$) were calculated for each curve individually, and dissociation rates ($koff$) values from the long dissociation phase data collected. Where $koff$ values were calculated to be $<1\times10^-5$ s^-1, values were set at 1×10^-5 for analysis, as rates slower than this could not be estimated accurately.

For assay [4], the target named is T1, human transglutaminase type 2 (TG2). The description is as above. The protocol:
as §1, §2, §3

The target is the same in assay [5]. The assay is described as follows: anti-huTG2 ELISA of HEK293F supernatants. The protocol: Supernatants from HEK293F cells co-transfected with different combinations of humanised AB1 light chains and AB1 heavy chain vectors were assayed in an anti-human IgG ELISA to determine concentration and in an anti huTG2 ELISA. Each supernatant was assayed in triplicate and $IC50$'s determined.
HEK 293F cells were co-transfected with combinations of different humanised light chain vectors in association with different humanised heavy chain vectors. Recombinant human TG2 was used to measure antibody binding by ELISA. […] A similar approach was used to identify optimal pairs of humanized BB7 heavy and light chains, and humanised DC1 heavy and light chains.
(In an ELISA, binding on a coated surface is turned into a signal by an enzyme label.)

The target is the same in assay [6]. The assay is described as follows: ELISA on immobilised human TG2; r2 0.9985; EC50 95% confidence range 0.3927 to 0.4971 [panel A]. On the procedure:
(§4) Antibody binding to human and cynomolgus monkey TG2 was determined in an ELISA assay. Clear polystyrene "Maxisorp" 96-well plates (Nunc) were coated with 50 ng purified human or cynomogulus monkey TG2 in 50 µl 0.05 M carbonate-bicarbonate buffer pH 9.6 at 4° C. overnight. Control wells were coated with 50 µl 100 µg/ml bovine serum albumin (BSA). Plates were washed 3× with 300 µl phosphate-buffered saline pH7.4 (PBS) containing 0.1% Tween 20 (PBST) and blocked with 300 µl 3% w/v Marvel skimmed milk in PBS for 1 hour at room temperature. After 3× wash with PBST, 50 µl protein-A purified chimeric or humanised anti-TG2 antibodies or human IgG1 kappa […] control antibody or CUB7402 (Abcam) were serially diluted 4-fold from a top concentration of 50 nM in PBS, and added to the plate in duplicate. […] After 3× washes with PBST, the plates were developed with 50 µl TMB substrate (Sigma) for 5 min at room temperature before stopping the reaction with 25 µl 0.5M H2SO4 and reading absorbance at 450 nm in a microtiter plate reader (BioTek EL808). Dose response curves were analysed and EC50 values and other statistical parameters determined using a 4-parameter logistical fit of the data (GraphPad Prism).

Assay [7] has the same target. The assay is described as follows: cell-based or functional assay. This is another data set of the same source.
In assay [8] the target is T2, cynomolgus monkey TG2. Put plainly: ELISA on immobilised cynomolgus monkey TG2; r2 0.9993; EC50 95% confidence range 0.3887 to 0.4489 [panel A]. The protocol: as §4
Assay [9] addresses T2, cynomolgus monkey TG2. Put plainly: cell-based or functional assay.

B1: hAB005 (hAB001AJ) humanised AB1 antibody (antibody, V domains shown)
VH: EVQLLESGGGLVQPGGSLRLSCAASGFTFSSSAMSWVRQAPGKGLEWVSTISVGGGKTYYPDSVKGRFTISRDNSKNTLYLQMNSLRAEDTAVYYCAKLISLYWGQGTLVTVSS
VL: DIQMTQSPSSLSASVGDRVTITCKASQDINSYLTWFQQKPGKAPKSLIYRTNRLFDGVPSRFSGSGSGTDFFLTISSLQPEDFATYYCLQYDDFPYTFGQGTKVEIK
notes: captured by anti-human IgG1 (Fc); also called Heavy Chain version RHA with Light Chain version RKJ
In the case of B1, in assay [1], the “IC50, extracellular TG activity of HK-2 cells, biotin cadaverine incorporation into fibronectin” value was found to be 71.8 nM. For the same molecule, the “IC50 of enzymatic inhibition, dansylated lysine incorporation into N,N-dimethylated casein; 2 batches shown [continued), panel C]” value in assay [2] was 6.87 nM. Besides, in the assay with cynomolgus monkey TG2 [3], the Kd (in general, the free concentration of one partner at which half of the binding sites on the other are occupied at equilibrium, for simple one-to-one binding) was 0.24 nM; the koff (commonly a measure of how fast the partners let go of each other) came to 3.4e-05 s⁻¹; the kon – broadly, the second-order rate constant of association – stood at 140000 M⁻¹ s⁻¹. For the same molecule, in [4], the Kd is less than 0.05 nM, the koff was less than 1e-05 s⁻¹ and the kon worked out at 190000 M⁻¹ s⁻¹.

B2: VHc/RKE (antibody, V domains shown)
VH: EVQLVESGGGLVKPGGSLKLSCAASGFTLSSSAMSWVRQTPDRRLEWVATISVGGGKTYYPDSVKGRFTISRDNAKNTLYLQMNSLRSEDTAMYYCAKLISLYWGQGTTLTVSS
VL: B1 VL with D1E, Q3V, M4L, F36Y, S46L, L73F, A84G, Q100G, V104L
notes: also called hAB001HcE
Take B2: the binding result in assay [5] is listed as “binds”.

B3: RHA/VKc (antibody, V domains shown)
VH: B1 VH
VL: EIVLTQSPSSMYASLGERVTITCKASQDINSYLTWFQQKPGKSPKTLIYRTNRLFDGVPSRFSGSGSGQDFFLTISSLEYEDMGIYYCLQYDDFPYTFGGGTKLEIK
notes: also called hAB001AKc
Consider B3, for which the binding result in assay [5] is given as “binds”.

B4: RHA/VKc1 (antibody, V domains shown)
VH: B1 VH
VL: B3 VL with E1D, V3Q, L4M
notes: also called hAB001AKc1
In the case of B4, the binding result in [5] is recorded as “binds”.

B5: VHc/RKJ (antibody, V domains shown)
VH: B2 VH
VL: B1 VL
notes: also called hAB001HcJ
B5: in [5], the binding result was “binds”.

B6: cDC001 chimeric antibody (murine DC1 variable regions) (antibody, human IgG1, V domains shown)
VH: EVQLVESGGGLVKPGGSLKLSCAASGFTLSTHAMSWVRQTPEKRLEWVATISSGGRSTYYPDSVKGRFTISRDNVKNTLYLQLSSLRSEDTAVYFCARLISTYWGQGTTLTVSS
VL: B3 VL with E1D, V3T, L4M, M11I, T46I, R50L, T51V, F55V, F71Y, F72A
notes: also called Chimeric DC1
As for B6, a half-maximal response in [6] (EC50) required 0.442 nM. Besides, the “IC50 of enzymatic inhibition, dansylated lysine incorporation into N,N-dimethylated casein [continued), panel C]” value in assay [7] was determined as 0.851 nM. Further, the midpoint of the response with cynomolgus monkey TG2 [8], the EC50, lay at 0.418 nM. In the assay with cynomolgus monkey TG2 [9], the “IC50 of enzymatic inhibition, dansylated lysine incorporation into N,N-dimethylated casein [panel A]” value was 5.86 nM. In the assay with cynomolgus monkey TG2 [3], the Kd is less than 0.024 nM, the koff was less than 1e-05 s⁻¹ and the kon turned out to be 420000 M⁻¹ s⁻¹. In addition, in assay [4], the Kd was less than 0.03 nM, the koff was less than 1e-05 s⁻¹ and the kon was determined as 320000 M⁻¹ s⁻¹.
